# According to paper PMC9482650, “Quantitative fragmentomics allow affinity mapping of interactomes” (Nature Communications, 2022):
# T1: CARD11, Q9BXL7
# T1 sequence (Q9BXL7 662-765, limits assumed, looked up): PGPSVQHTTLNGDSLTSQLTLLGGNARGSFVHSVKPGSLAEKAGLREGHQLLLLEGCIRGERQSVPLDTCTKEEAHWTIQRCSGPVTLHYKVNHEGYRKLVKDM
# T2: DVL3, Q92997
# T2 sequence (Q92997 244-331, limits assumed, looked up): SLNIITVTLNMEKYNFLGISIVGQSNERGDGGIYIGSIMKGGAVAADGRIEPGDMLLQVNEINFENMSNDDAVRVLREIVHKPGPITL
# T3: LNX2_3, Q8N448
# T3 sequence (Q8N448 463-564, limits assumed, looked up): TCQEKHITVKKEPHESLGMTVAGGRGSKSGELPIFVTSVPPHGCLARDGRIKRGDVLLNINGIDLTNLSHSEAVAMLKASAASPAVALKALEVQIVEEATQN
# T4: GRIP1_4, Q9Y3R0
# T4 sequence (Q9Y3R0 467-571, limits assumed, looked up): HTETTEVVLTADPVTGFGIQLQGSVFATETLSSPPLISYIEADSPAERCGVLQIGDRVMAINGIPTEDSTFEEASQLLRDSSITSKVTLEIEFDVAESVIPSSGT
# T5: FRMPD1, Q5SYB0
# T5 sequence (Q5SYB0 52-145, limits assumed, looked up): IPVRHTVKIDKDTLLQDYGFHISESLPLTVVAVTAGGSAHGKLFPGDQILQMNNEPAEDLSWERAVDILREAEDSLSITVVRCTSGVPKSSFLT
# T6: LNX2_2, Q8N448
# T6 sequence (Q8N448 334-432, limits assumed, looked up): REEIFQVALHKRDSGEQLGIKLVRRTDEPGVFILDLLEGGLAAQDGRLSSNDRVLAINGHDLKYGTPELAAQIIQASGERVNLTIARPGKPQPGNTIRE
# T7: PTPN13_1, Q12923
# T7 sequence (Q12923 1088-1188, limits assumed, looked up): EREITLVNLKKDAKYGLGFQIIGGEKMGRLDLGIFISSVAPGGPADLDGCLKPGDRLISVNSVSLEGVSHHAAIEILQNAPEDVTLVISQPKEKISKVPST
# T8: PDZRN3_1, Q9UPQ7
# T8 sequence (Q9UPQ7 244-349, limits assumed, looked up): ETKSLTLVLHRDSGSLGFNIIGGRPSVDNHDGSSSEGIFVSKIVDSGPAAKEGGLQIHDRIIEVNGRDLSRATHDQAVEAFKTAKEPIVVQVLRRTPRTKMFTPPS
# T9: HTRA4, P83105
# T9 sequence (P83105 378-476, limits assumed, looked up): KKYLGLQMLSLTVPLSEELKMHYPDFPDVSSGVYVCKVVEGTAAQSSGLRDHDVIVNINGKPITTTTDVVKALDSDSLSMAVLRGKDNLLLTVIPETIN
# T10: RAPGEF6, Q8TEU7
# T10 sequence (Q8TEU7 525-625, limits assumed, looked up): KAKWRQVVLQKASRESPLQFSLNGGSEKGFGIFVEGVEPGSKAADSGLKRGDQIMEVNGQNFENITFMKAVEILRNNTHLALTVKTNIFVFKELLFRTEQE
# T11: ARHGEF11, O15085
# T11 sequence (O15085 42-136, limits assumed, looked up): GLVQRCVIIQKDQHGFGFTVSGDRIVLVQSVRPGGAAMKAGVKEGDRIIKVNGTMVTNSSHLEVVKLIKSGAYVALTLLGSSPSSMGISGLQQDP
# T12: PDZD2_2, O15018
# T12 sequence (O15018 329-429, limits assumed, looked up): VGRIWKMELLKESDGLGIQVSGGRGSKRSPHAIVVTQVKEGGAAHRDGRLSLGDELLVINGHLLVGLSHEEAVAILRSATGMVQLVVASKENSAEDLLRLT
# Key:
# Assay in all cases: holdup assay
# Design in all cases: key: below the threshold = too weak to quantify, mostly under pKd 3.1 to 4
# [1] = target: T1, CARD11, Q9BXL7
# [2] = target: T2, DVL3, Q92997
# [3] = target: MAGI2_5, Q86UL8
# [4] = target: PARD3_3, Q8TEW0
# [5] = target: GRIP2_3, Q9C0E4
# [6] = target: T3, LNX2_3, Q8N448
# [7] = target: T4, GRIP1_4, Q9Y3R0
# [8] = target: GORASP1, Q9BQQ3
# [9] = target: GRID2IP_2, A4D2P6
# [10] = target: DLG5_1, Q8TDM6
# [11] = target: LIMK2, P53671
# [12] = target: T5, FRMPD1, Q5SYB0
# [13] = target: NHERF4_2, Q86UT5
# [14] = target: Inadl_3, Q8NI35
# [15] = target: T6, LNX2_2, Q8N448
# [16] = target: T7, PTPN13_1, Q12923
# [17] = target: LNX1_3, Q8TBB1
# [18] = target: T8, PDZRN3_1, Q9UPQ7
# [19] = target: T9, HTRA4, P83105
# [20] = target: GRIP2_6, Q9C0E4
# [21] = target: SNX27, Q96L92
# [22] = target: MAGI1_2, Q96QZ7
# [23] = target: T10, RAPGEF6, Q8TEU7
# [24] = target: NOS1, P29475
# [25] = target: T11, ARHGEF11, O15085
# [26] = target: T12, PDZD2_2, O15018
# [27] = plain residues with an end cap or a label only (N-terminal biotin on a linker: ahx)
# [28] = plain residues with an end cap or a label only (N-terminal biotin on a linker: ado-ado)
# Sequence of GRIP2_6, Q9C0E4 (Q9C0E4 648-740): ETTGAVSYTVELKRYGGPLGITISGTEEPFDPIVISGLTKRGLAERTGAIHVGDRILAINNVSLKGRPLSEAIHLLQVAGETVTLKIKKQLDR
# Sequence of LNX1_3, Q8TBB1 (Q8TBB1 500-596): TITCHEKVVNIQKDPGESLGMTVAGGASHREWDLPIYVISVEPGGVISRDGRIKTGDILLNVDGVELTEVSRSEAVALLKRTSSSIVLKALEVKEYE
# Sequence of MAGI2_5, Q86UL8 (Q86UL8 915-1017): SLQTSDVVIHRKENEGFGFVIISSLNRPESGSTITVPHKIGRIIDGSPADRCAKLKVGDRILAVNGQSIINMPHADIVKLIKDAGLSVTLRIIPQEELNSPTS
# Sequence of GORASP1, Q9BQQ3 (Q9BQQ3 1-208): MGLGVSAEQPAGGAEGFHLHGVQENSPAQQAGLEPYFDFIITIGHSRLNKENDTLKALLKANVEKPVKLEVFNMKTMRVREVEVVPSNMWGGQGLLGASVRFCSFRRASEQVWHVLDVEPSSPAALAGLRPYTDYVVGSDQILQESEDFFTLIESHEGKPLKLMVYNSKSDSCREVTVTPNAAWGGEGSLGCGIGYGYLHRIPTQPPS
# Sequence of GRIP2_3, Q9C0E4 (Q9C0E4 238-339): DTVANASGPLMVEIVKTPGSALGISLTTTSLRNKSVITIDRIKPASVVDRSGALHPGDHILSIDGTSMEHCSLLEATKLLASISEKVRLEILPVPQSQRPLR
# Sequence of Inadl_3, Q8NI35 (Q8NI35 359-469): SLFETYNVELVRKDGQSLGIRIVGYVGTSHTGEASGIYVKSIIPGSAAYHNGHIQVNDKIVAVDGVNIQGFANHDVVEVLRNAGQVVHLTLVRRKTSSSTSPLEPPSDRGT
# Sequence of LIMK2, P53671 (P53671 143-248): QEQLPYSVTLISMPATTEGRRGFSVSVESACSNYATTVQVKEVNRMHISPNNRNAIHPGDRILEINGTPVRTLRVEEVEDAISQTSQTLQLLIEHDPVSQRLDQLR
# Sequence of DLG5_1, Q8TDM6 (Q8TDM6 617-713): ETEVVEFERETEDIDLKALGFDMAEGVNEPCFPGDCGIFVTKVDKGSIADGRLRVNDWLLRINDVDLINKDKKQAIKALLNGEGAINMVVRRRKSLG
# Sequence of PARD3_3, Q8TEW0 (Q8TEW0 582-685): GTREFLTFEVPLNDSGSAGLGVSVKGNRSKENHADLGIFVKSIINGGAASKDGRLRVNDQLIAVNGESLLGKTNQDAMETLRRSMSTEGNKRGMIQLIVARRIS
# Sequence of NHERF4_2, Q86UT5 (Q86UT5 220-308): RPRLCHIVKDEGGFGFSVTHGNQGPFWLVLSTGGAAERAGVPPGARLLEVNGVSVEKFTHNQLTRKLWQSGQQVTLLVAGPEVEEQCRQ
# Sequence of GRID2IP_2, A4D2P6 (A4D2P6 272-370): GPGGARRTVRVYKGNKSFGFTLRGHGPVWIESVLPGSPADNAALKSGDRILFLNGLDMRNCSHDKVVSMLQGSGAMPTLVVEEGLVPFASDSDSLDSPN
# Sequence of NOS1, P29475 (P29475 9-101): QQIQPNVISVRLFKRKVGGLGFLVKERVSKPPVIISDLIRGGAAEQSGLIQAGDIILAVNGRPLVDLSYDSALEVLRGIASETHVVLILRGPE
# Sequence of MAGI1_2, Q96QZ7 (Q96QZ7 456-580): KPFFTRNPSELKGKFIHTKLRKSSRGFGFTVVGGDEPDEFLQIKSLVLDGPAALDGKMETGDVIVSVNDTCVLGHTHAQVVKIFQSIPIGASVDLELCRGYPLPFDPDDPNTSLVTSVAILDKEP
binder,measurement,setting,value
"APSRKLNTEI [TIAM1, Q13009]",pKd,[1]; [27],below the threshold
same,pKd,[2]; [27],below the threshold
same,pKd,[3]; [27],below the threshold
same,pKd,[4]; [27],below the threshold
same,pKd,[5]; [27],below the threshold
same,pKd,[6]; [27],below the threshold
same,pKd,[7]; [27],below the threshold
same,pKd,[8]; [27],below the threshold
same,pKd,[9]; [27],below the threshold
same,pKd,[10]; [27],below the threshold
same,pKd,[11]; [27],below the threshold
same,pKd,[12]; [27],below the threshold
same,pKd,[13]; [27],below the threshold
same,pKd,[14]; [27],below the threshold
same,pKd,[15]; [27],below the threshold
same,pKd,[16]; [27],below the threshold
same,pKd,[17]; [27],below the threshold
same,pKd,[18]; [27],below the threshold
same,pKd,[19]; [27],below the threshold
same,pKd,[20]; [27],below the threshold
same,pKd,[21]; [27],below the threshold
same,pKd,[22]; [27],below the threshold
same,pKd,[23]; [27],below the threshold
same,pKd,[24]; [27],below the threshold
same,pKd,[25]; [27],below the threshold
same,pKd,[26]; [27],below the threshold
"EPQYQPGENL [SRC, P12931]",pKd,[1]; [28],below the threshold
same,pKd,[2]; [28],below the threshold
same,pKd,[3]; [28],below the threshold
same,pKd,[4]; [28],3.6
same,pKd,[5]; [28],below the threshold
same,pKd,[6]; [28],below the threshold
same,pKd,[7]; [28],below the threshold
same,pKd,[8]; [28],below the threshold
same,pKd,[9]; [28],below the threshold
same,pKd,[10]; [28],below the threshold
same,pKd,[11]; [28],below the threshold
same,pKd,[12]; [28],below the threshold
same,pKd,[13]; [28],below the threshold
same,pKd,[14]; [28],below the threshold
same,pKd,[15]; [28],below the threshold
same,pKd,[16]; [28],below the threshold
same,pKd,[17]; [28],below the threshold
same,pKd,[18]; [28],below the threshold
same,pKd,[19]; [28],3.9
same,pKd,[20]; [28],below the threshold
same,pKd,[21]; [28],3.79
same,pKd,[22]; [28],below the threshold
same,pKd,[23]; [28],below the threshold
same,pKd,[24]; [28],below the threshold
same,pKd,[25]; [28],below the threshold
same,pKd,[26]; [28],below the threshold
"DGVNEKVSCV [HTR2A, P28223]",pKd,[1]; [28],below the threshold
same,pKd,[2]; [28],below the threshold
same,pKd,[3]; [28],4.78
same,pKd,[4]; [28],below the threshold
same,pKd,[5]; [28],below the threshold
same,pKd,[6]; [28],below the threshold
same,pKd,[7]; [28],below the threshold
same,pKd,[8]; [28],below the threshold
same,pKd,[9]; [28],4.54
same,pKd,[10]; [28],below the threshold
same,pKd,[11]; [28],below the threshold
same,pKd,[12]; [28],below the threshold
same,pKd,[13]; [28],below the threshold
same,pKd,[14]; [28],below the threshold
same,pKd,[15]; [28],4.42
same,pKd,[16]; [28],below the threshold
same,pKd,[17]; [28],below the threshold
same,pKd,[18]; [28],below the threshold
same,pKd,[19]; [28],3.71
same,pKd,[20]; [28],below the threshold
same,pKd,[21]; [28],5.15
same,pKd,[22]; [28],below the threshold
same,pKd,[23]; [28],below the threshold
same,pKd,[24]; [28],3.69
same,pKd,[25]; [28],4.18
same,pKd,[26]; [28],6
"QSYPSKHDYV [CLDN18, P56856]",pKd,[1]; [28],below the threshold
same,pKd,[2]; [28],3.7
same,pKd,[3]; [28],below the threshold
same,pKd,[4]; [28],3.69
same,pKd,[5]; [28],below the threshold
same,pKd,[6]; [28],below the threshold
same,pKd,[7]; [28],below the threshold
same,pKd,[8]; [28],3.74
same,pKd,[9]; [28],below the threshold
same,pKd,[10]; [28],below the threshold
same,pKd,[11]; [28],below the threshold
same,pKd,[12]; [28],below the threshold
same,pKd,[13]; [28],3.59
same,pKd,[14]; [28],below the threshold
same,pKd,[15]; [28],4.17
same,pKd,[16]; [28],below the threshold
same,pKd,[17]; [28],3.74
same,pKd,[18]; [28],below the threshold
same,pKd,[19]; [28],4.12
same,pKd,[20]; [28],below the threshold
same,pKd,[21]; [28],3.83
same,pKd,[22]; [28],below the threshold
same,pKd,[23]; [28],below the threshold
same,pKd,[24]; [28],4.29
same,pKd,[25]; [28],3.81
same,pKd,[26]; [28],4.86
